This note sets out measurements from US20260091080A1 (CELOSIA THERAPEUTICS, published 2026).

Test [1] deals with endogenous TDP-43 of murine N2a cells and mouse brain (mouse, UniProt Q921F2 1-414). Kind of test: co-immunoprecipitation from N2a cells and mouse brain.
Test [2] deals with YES-associated protein (YAP) (UniProt P46937 1-504). The experiment in a line: co-precipitation with expressed Fx.
Test [3] has as its target FOXO1 (UniProt Q12778 1-655, limits assumed). Kind of test: co-precipitation with expressed Fx.

endogenous TDP-43 of murine N2a cells and mouse brain, sequence (Q921F2 whole entry): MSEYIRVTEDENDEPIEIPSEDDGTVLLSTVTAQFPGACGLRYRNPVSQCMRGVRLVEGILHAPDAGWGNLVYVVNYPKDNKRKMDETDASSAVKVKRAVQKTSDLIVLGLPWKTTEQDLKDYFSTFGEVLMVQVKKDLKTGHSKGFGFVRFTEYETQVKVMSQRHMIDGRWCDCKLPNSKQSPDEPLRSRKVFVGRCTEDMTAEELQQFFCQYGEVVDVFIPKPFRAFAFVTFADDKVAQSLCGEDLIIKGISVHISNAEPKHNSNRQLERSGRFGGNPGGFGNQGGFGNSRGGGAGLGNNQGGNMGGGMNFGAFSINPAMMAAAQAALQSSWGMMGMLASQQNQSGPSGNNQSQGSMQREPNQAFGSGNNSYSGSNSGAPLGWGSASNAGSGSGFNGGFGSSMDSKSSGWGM
YES-associated protein (YAP), sequence (P46937 whole entry): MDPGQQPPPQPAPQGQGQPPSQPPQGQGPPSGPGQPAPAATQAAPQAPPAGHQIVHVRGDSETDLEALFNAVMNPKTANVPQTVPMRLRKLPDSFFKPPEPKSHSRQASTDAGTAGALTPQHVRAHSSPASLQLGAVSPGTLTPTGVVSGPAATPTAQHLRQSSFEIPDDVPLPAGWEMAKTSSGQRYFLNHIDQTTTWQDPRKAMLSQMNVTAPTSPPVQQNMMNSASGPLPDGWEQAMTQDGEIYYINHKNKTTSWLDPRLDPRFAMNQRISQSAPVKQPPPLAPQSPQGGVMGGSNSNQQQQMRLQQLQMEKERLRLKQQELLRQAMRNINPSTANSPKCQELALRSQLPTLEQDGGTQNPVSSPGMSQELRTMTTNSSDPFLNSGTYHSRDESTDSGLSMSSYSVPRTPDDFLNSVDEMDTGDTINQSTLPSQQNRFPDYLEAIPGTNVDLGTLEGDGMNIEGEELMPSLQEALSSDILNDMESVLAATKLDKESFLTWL
FOXO1, sequence (Q12778 whole entry): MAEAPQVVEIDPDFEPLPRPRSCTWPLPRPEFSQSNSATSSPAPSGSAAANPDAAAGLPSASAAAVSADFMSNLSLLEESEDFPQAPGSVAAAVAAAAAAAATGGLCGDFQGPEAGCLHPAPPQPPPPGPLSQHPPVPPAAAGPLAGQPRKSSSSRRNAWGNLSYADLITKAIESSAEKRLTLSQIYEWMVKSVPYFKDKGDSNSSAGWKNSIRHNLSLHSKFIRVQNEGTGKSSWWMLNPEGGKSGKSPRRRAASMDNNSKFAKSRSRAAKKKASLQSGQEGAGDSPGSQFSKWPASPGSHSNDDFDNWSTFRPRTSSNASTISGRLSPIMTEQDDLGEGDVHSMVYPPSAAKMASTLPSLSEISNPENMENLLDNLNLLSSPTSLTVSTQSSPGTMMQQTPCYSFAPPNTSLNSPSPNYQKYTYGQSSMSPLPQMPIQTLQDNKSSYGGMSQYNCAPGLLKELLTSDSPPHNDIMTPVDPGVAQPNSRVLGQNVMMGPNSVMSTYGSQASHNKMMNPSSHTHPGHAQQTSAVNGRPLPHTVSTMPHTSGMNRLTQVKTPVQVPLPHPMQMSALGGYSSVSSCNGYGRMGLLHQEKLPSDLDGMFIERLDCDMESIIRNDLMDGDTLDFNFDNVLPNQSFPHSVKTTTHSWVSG

B1: endogenous 14-3-3θ of murine N2a cells and mouse brain (other, UniProt P68254 1-245, looked up)
chain: MEKTELIQKAKLAEQAERYDDMATCMKAVTEQGAELSNEERNLLSVAYKNVVGGRRSAWRVISSIEQKTDTSDKKLQLIKDYREKVESELRSICTTVLELLDKYLIANATNPESKVFYLKMKGDYFRYLAEVACGDDRKQTIENSQGAYQEAFDISKKEMQPTHPIRLGLALNFSVFYYEILNNPELACTLAKTAFDEAIAELDTLNEDSYKDSTLIMQLLRDNLTLWTSDSAGEECDAAEGAEN
With B1, in test [1], the binding result is on record as “binds”. GDDRKQTIDNSQGAYQEAFDISKKEMQPTH (not shown: V5 tag) [14-3-3θ-Fx-V5 (α-helix 6 (αF) of 14-3-3θ alone)]: the binding result in test [2] and in test [3] was “no binding” throughout.
